Source: patent US20210008161A1 (CRISPR THERAPEUTICS, published 2021)

Target: p53-binding protein 1 (53BP1) (human, UniProt Q12888 1-1972)
Experiment: cell-based or functional assay

Chain of p53-binding protein 1 (53BP1) (Q12888 whole entry): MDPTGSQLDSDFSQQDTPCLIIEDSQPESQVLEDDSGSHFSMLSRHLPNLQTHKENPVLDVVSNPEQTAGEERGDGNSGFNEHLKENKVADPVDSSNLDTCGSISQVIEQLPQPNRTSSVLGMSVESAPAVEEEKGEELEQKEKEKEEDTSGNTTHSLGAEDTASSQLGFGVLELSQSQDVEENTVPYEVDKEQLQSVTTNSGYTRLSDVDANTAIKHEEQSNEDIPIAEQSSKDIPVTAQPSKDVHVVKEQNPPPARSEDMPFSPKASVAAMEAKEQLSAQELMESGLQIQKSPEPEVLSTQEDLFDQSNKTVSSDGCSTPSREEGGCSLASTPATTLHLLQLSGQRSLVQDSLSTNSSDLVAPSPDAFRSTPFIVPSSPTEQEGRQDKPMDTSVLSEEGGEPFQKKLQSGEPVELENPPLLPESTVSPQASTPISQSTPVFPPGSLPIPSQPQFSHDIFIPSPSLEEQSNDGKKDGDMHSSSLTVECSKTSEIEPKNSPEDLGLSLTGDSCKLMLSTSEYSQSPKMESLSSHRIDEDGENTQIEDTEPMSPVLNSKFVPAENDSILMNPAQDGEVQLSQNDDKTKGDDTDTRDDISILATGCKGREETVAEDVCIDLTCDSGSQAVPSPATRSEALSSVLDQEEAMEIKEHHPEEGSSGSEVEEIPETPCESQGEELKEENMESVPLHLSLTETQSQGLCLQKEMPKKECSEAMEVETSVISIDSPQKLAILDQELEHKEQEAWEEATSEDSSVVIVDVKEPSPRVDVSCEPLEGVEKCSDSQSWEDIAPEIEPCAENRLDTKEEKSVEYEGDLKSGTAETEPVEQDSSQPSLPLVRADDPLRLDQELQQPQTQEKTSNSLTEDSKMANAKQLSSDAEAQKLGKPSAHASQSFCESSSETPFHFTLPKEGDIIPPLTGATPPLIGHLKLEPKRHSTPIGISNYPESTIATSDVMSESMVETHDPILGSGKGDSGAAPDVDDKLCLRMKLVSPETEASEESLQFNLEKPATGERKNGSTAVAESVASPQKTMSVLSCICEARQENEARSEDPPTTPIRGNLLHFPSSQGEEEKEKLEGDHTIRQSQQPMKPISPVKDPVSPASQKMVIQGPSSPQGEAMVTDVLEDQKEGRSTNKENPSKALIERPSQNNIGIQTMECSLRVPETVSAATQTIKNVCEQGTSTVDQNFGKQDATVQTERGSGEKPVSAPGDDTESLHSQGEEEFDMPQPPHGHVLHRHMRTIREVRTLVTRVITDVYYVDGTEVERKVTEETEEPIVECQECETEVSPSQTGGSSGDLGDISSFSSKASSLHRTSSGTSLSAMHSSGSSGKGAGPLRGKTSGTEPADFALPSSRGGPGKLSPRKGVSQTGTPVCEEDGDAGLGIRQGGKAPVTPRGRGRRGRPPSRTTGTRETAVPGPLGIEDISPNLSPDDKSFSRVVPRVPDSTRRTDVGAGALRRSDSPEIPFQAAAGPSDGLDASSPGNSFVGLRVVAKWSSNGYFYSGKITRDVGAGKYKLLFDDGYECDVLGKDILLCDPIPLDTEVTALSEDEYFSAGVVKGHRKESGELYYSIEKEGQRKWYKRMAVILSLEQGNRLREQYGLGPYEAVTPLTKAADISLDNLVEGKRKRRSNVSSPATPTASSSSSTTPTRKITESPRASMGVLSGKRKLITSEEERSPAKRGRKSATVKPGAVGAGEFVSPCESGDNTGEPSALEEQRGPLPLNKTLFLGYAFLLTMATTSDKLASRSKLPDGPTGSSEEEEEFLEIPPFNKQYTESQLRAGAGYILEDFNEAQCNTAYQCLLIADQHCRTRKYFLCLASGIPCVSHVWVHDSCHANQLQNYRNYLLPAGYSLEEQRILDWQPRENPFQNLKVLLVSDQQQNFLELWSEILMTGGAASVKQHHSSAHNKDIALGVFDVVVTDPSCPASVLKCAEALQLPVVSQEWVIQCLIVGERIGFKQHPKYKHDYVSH

B1: i53 polypeptide (polypeptide inhibitor of 53BP1) (designed binder)
chain: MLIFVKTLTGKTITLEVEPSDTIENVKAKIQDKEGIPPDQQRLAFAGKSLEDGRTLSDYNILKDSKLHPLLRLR
- HDR efficiency (GFP insertion at the HBB locus, CD34-expressing LT-HSPCs, GFP fluorescence): ~1.3 fold
- INDEL frequency at the HBB locus relative to RNP+AAV (CD34-expressing LT-HSPCs, TIDE analysis): 1.7 fold
- fold increase in HDR at the HBB locus over RNP+AAV alone (CD34-expressing LT-HSPCs, NGS assay): 1.4 fold
- fold increase in HDR efficiency over RNP+AAV alone (LT-HSPCs mobilised with Mozobil+GCSF): ~1.5 fold
